Data published in patent US20220267421A1 (INVOX PHARMA, published 2022).
One block for each binder: values may come before it.

Tests used:
[1] = biological target: T1, cynomolgus MSLN-His-Avi (cynomolgus, single biotin (BirA) in the biotinylated form); assay: SPR steady-state analysis, cMSLN-His-Avi coated at about 50 RU
T1 construct: Monomeric, made in HEK293-6E; also called cMSLN-His-Avi; cyno MSLN-His-Avi
T1 chain: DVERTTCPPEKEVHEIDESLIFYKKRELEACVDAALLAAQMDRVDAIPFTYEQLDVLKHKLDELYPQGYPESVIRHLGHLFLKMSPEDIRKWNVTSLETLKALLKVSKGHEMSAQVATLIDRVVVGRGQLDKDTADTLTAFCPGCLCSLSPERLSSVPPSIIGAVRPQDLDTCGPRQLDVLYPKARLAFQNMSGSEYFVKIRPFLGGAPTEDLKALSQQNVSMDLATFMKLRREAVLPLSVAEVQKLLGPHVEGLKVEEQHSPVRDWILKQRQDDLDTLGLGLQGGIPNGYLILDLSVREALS
Experimental: The association time was 1000 sec to steady state and the dissociation time was 30 sec. Running buffer was HBS-EP (GE Healthcare BR100188). Flow cells were regenerated by injecting Glycine-HCl pH1.5 at a flow rate of 30 μl/min for 30 seconds. Data were analysed by double referencing against a flow cell which was intentionally left blank (no antigen coating). Steady state affinity model was used to analyse kinetic data using the BiaEvaluation software version 3.2.

[2] = biological target: T2, human MSLN-His-Avi (human, UniProt Q13421 296-598, single biotin (BirA) in the biotinylated form); assay: SPR (Biacore), MSLN immobilised, mAb^2 injected
T2 construct: Monomeric, made in HEK293-6E; Used both immobilised and in solution; also called hMSLN-His-Avi; biotinylated hMSLN-His-Avi
T2 sequence (Q13421 other isoform, or with tags, fused parts or gaps): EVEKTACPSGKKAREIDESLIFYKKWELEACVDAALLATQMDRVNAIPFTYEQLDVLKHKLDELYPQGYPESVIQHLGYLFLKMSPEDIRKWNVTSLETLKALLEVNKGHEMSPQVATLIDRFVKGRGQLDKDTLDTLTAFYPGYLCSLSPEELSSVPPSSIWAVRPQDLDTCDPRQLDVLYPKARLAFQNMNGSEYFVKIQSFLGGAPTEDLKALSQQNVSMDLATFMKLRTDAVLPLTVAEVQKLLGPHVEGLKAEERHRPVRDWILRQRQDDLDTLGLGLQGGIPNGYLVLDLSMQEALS
How it was run: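 Human MSLN-His-Avi amine-coupled to CM5 chip at about 200 RU, blank reference cell subtracted. Anti-MSLN mAb² (supernatant or purified) at about 50 nM in HBS-EP+ injected 2.5 min at 30 μl/min, 2.5 min dissociation; 10 mM glycine pH 1.5 regeneration.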

[3] = biological target: T3, cell surface human mesothelin (MSLN) (human, UniProt Q13421 296-598); assay: flow cytometry, NCI-H226 cells
T3 construct: whole, on cells; also called cell surface MSLN
T3 sequence (Q13421 other isoform, or with tags, fused parts or gaps limits assumed): as the sequence (Q13421 other isoform, or with tags, fused parts or gaps) above
Experimental: (§1) Cells were centrifuged at 1200 rpm for 3 min and resuspended in ice cold FACS buffer made up of DPBS (Life Technologies, 14190169) and 1% BSA (Sigma-Aldrich, A7906) at 2×10⁶ cells/ml and 50 μl per well was seeded in a 96-well V-bottom plate (Costar, 3894). All mAbs tested were diluted in FACS buffer in 120 μl at a concentration range of 0.01-200 nM (4-fold dilutions). The NCI-H226 cells were then centrifuged, supernatant removed and cells resuspended in 100 μl of each mAb dilution and incubated at 4° C. for 45 min. Cells were washed twice by centrifugation with 150 μl FACS buffer, resuspended in 100 μl containing goat anti-human IgG (γ-chain specific) F(ab′)2 fragment-R-Phycoerythrin antibody (Sigma, P8047) diluted 1:1000 in FACS buffer and incubated at 4° C. for 45 min. The cells were washed once with 150 μl FACS buffer and then with 150 μl DPBS, resuspended in 150 μl DPBS containing DAPI (Biotium, 40043) at 1:10.000 and read on the BDCantoll or iQue (Intellicyt). Data was analysed using FlowJo v10 to determine the signal geometric mean for PE for live cells in each well.
(§2) Cell binding assays using OVCAR-3 cells were performed similarly to the assays described in section 2.4. The effect of the presence of soluble MSLN was tested by pre-incubating the antibodies in the presence or absence of soluble MSLN before mixing with cells and determining if the pre-incubation affected binding to MSLN on the cell surface. […] 60 μl from each well was then added to either FACS buffer alone or to FACS buffer containing 60 μl of 40 nM recombinant hMSLN (R&D systems, 3265-MS-050) (to give a final concentration of 20 nM hMSLN) and pre-incubated at room temperature for 1 hour before 100 μl was added to the cells. Bound antibody was detected using goat anti-human anti-Fcγ Alexa-Fluor 488 (Jackson Immunoresearch, 109-546-098).
(§3) The method used was exactly as described in section 3.1.4.

[4] = biological target: T2, human MSLN-His-Avi; assay: ratio of the two SPR KD
How it was run: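 mAb² clones were tested on two SPR set-ups. In the first, human MSLN-His-Avi was amine-coupled to CM5 (~200 RU) and ~50 nM antibody was injected. In the second, clones were captured on Protein G (~100 RU) and human or cyno MSLN (1000-0.051 nM, 3-fold) was flowed in HBS-EP with 900 mM […] for 5 min association/5 min dissociation. The value is the ratio of the two KD.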

[5] = biological target: T1, cynomolgus MSLN-His-Avi; assay: SPR (see Table 4)
[6] = biological target: T1, cynomolgus MSLN-His-Avi; assay: SPR (Biacore), mAb^2 captured on Protein G, MSLN in solution injected
[7] = biological target: T2, human MSLN-His-Avi; assay: as above
[8] = biological target: T3, cell surface human mesothelin (MSLN); assay: flow cytometry, NCI-H226 cells + 20 nM soluble MSLN
Experimental: as §1, §2, §3

fold difference of binding to cyno MSLN against human MSLN [1]: ≤ 3 fold
B1: FS22-172-003-AA/FS28-256-271 mAb^2 (bispecific antibody, human IgG1, kappa, L234A L235A)
heavy: EVQLLESGGGLVQPGGSLRLSCAASGFTFTHTYMSWVRQAPGKGLEWVSAISPTYSTTNYADSVKGRFTISRDNNKNTLYLQMNSLRAEDTAVYYCARYNAYHAALDYWGQGTLVTVSSASTKGPSVFPLAPSSKSTSGGTAALGCLVKDYFPEPVTVSWNSGALTSGVHTFPAVLQSSGLYSLSSVVTVPSSSLGTQTYICNVNHKPSNTKVDKKVEPKSCDKTHTCPPCPAPEAAGGPSVFLFPPKPKDTLMISRTPEVTCVVVDVSHEDPEVKFNWYVDGVEVHNAKTKPREEQYNSTYRVVSVLTVLHQDWLNGKEYKCKVSNKALPAPIEKTISKAKGQPREPQVYTLPPSRDELPYIIPPYNQVSLTCLVKGFYPSDIAVEWESNGQPENNYKTTPPVLDSDGSFFLYSKLTVGADRWLEGNVFSCSVMHEALHNHYTQKSLSLSPG
light: EIVLTQSPGTLSLSPGERATLSCRASQSVSSSYLAWYQQKPGQAPRLLIYGASSRATGIPDRFSGSGSGTDFTLTISRLEPEDFAVYYCQQTVPYPYTFGQGTKVEIKRTVAAPSVFIFPPSDEQLKSGTASVVCLLNNFYPREAKVQWKVDNALQSGNSQESVTEQDSKDSTYSLSSTLTLSKADYEKHKVYACEVTHQGLSSPVTKSFNRGEC

Kd [2]: 0.39 nM
EC50 [3]: 1.47 nM
Emax (MFI) [3]: 981000 MFI
Ratio of KD in solution/immobilised for human MSLN-His-Avi [4]: 119
fold lower affinity for cyno MSLN than for human MSLN [5]: ~5 fold
Kd [6]: 240 nM
Kd [7]: 46.5 nM
EC50 [8]: 5.04 nM
Emax (MFI) [8]: 1.02e+06 MFI
B2: FS22-053-008-AA/FS28-024 mAb^2 (bispecific antibody, human IgG1, kappa, L234A L235A, V domains shown)
VH: EVQLLESGGGLVQPGGSLRLSCAASGFTLSYSSMSWVRQAPGKGLEWVSFITPSTGYTHYADSVKGRFTISRDNSKNTLYLQMNSLRAEDTAVYYCARRALTFDYWGQGTLVTVSS
VL: EIVLTQSPGTLSLSPGERATLSCRASQSVSSSYLAWYQQKPGQAPRLLIYGASSRATGIPDRFSGSGSGTDFTLTISRLEPEDFAVYYCQQASSYPLTFGQGTKVEIKR
notes: also called FS28-024 (in FS22-053-008-AA mAb^2 format); FS28-024 (in CD137 mAb2 format)
